These results are taken from the nanobody polyreactivity screen of Harvey et al. (2022).

A short description of the series: yeast display, Sf9 membrane polyspecificity reagent, FACS + sequencing; frameworks hold sequencing errors. An outline of the steps:
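Nanobodies came from a synthetic yeast display library in Saccharomyces cerevisiae BJ5465, induced with galactose for 36–48 hours and stained for 1 hour at 4 °C with 10% biotinylated, detergent-solubilized Sf9 membrane reagent. Cells were enriched on streptavidin microbeads and then FACS-sorted, with low and high (top ~1%) gates set on anti-HA fluorescence for expression and streptavidin fluorescence for reagent binding. Each polyreactivity label reflects the gate a clone came from. Genes were amplified by colony PCR, sequenced by MiSeq 2 × 250 and filtered by CDR length.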
Take “QDQLVESGGGLVQAGGSLRLSCAASGLTFYTYAMGWYRPAPGKERELVAAIRWRGGRTYYADSVKGRFTISRDNAKNTVYLLMNSLKPEDTAVYYCAADYSTLYKYDYWGQGTQVTVSS”: the “polyreactivity (PSR sort gate)” value is reported as “low polyreactivity”.

Turning to “QVKLVESGGGLVQAGGSLRLSCAASGSTLRYYGMGWYRQAPGKERELVAAISSGGITNYADSVKGRFTISRDNAKNTVYLQMNSLKPEDTAVYYCAAYYTYTWFGYWGQGTQVTVSS”, the “polyreactivity (PSR sort gate)” value is given as “low polyreactivity”.

Take “QVQLVESGGGLVQAGGSLRLSCAASGFIFYSYPMGWYRKAPGKERALVAAITEDGDSTYYADSVKGRFTISRDNAKNTVYLQMNSLKPVDTAVYYCNTDLTFNGTSGDYDYWGQGTQVTVSS”: the “polyreactivity (PSR sort gate)” value is “low polyreactivity”.

Turning to “QVQLVESGGGLVQAGGSLRLSCAASGIIFASYALGWYRQAPGKERELVAAISGGGSTYYADSVKGRFTISRDNAKNTVYLQMNSLKPEDTAVYYCNADVTLRLWAYYYYRYNYWGQGTQVTVSS”, the “polyreactivity (PSR sort gate)” value is “low polyreactivity”.

Take “QVQLVESGGGLVQAGGSLRLSCAASGSIFYVYAMGWYRQAPGKERELVAAITSGGSTNYADSVKGRFTISRDNAKNTVYLQMNSLKPEDTAVYYCAAAWENIWVWQEYIEYDYWGQGTQVTVSS”: the “polyreactivity (PSR sort gate)” value is listed as “low polyreactivity”.

Consider “QVQLVESGGGLVQAGRSLRLSCAASGITFSRNDMGWYRQAPGKEMQLVAAISRSGGRTYYADSVKGRFTLSRDNAKNTVYLQMNCLNPEDTAVYYCNRDIGGTSVLDDYWGQGTQVTVSS”, for which the “polyreactivity (PSR sort gate)” value is given as “low polyreactivity”.

Take “QVQLVESGGGLVQAGGSLRLSCAASGSIFDLNAMGWYRQAPGKERELVAAISKSGGSTYYADSVKGRFTISRDNAKNTVYLQMNSLKPEDTAVYYCATSGDRLVWGQGTQVTVSW”: the “polyreactivity (PSR sort gate)” value was “low polyreactivity”.

Turning to “QVQLVESGGCLVQAGGSLRLSCAASGSIFSSYQMGWYRQAPGKQRELVEAISSGGSTNYADSVKGRFTISRDNAKNTVYLQMHRLKPEDTAVYYCNVDLFNWGGDSTGYDYWGQGTQVTVSS”, the “polyreactivity (PSR sort gate)” value was “low polyreactivity”.

On to “QVQLVESGGGLVQAGGSLRLSCAASGSIFPKYAMGWYRQAPGKERELVATISYRGGRTYYADSVKGRFTISRDNAKNTVYLQMYSLKPEDTAVYYCATRYPYYPFYVGIYELDYWGQGTQVTVSS”, for which the “polyreactivity (PSR sort gate)” value is given as “low polyreactivity”.

“QVQLVESGVGLVQAGGSLRLSCAASGIIFGFYAMGWYRQAPGKERELVAAISVSGGSTNYADSVKGRFTISRDNAKNTVYLQMNSLKPEDTAVYYCAARVRDSLVYGGWDDYWGQGTQVTVSS”: the “polyreactivity (PSR sort gate)” value is “high polyreactivity”.

Take “QVQLVESGGGLVQAGGSLRLSCAASGFNFKHYAMGWYRQAPGKERELVATITRGGSTNYADSVKGRFTISRDNAKNTVYLQMNSLKPEDTAVYYCAASDYVRYPFTRGYIYQGSDYWGQGTQVTVSS”: the “polyreactivity (PSR sort gate)” value is recorded as “low polyreactivity”.

Turning to “QVQLVESGGGLVQAGGSLRLSCAASGSTLYGNVMGWYRQAPGKERELVATINRGGSTNYADSVKGRFTISRDNAKNTVYLQMNSLKPEDTAVYYCAARGFAWYYLEDYWGQGTQVTVSS”, the “polyreactivity (PSR sort gate)” value is reported as “low polyreactivity”.

Take “QVQLVESGGGLVQAGGSLRISCAASGRTFDYNAMGWYRQAPGKERELVAAIRFGGGSTYYADSVKGRFTISRDNAKNTVYFQMNSLKPEDTAVYYCNASPLWIGWEIVPVGSSHYDYWGQGTQVTVSS”: the “polyreactivity (PSR sort gate)” value is “low polyreactivity”.

For “QVQLEESGRGLVQAGGSLRISCAASGRTYTYYALGWYRQAPGKERELVAAISQSGGSTYYADSVKGRFTISRDNAKNTVYLQMNSLKPEDTAVYYCASVWRTRWAPGYYWGQGTQVTVSS”, the “polyreactivity (PSR sort gate)” value is given as “high polyreactivity”.

As for “QVQLVESGGGLVQAGGSLRLSCAASGITFFRYTMGWYRQAPGKERELVAAINIRGTRTYYADSVKGRFTISRDNAKNTVYLQMNSLKPEDTAVYYCAAGYAYRYSGLSYDVDYWGQGTQVTVSS”, the “polyreactivity (PSR sort gate)” value is given as “high polyreactivity”.

Consider “QVQLVESGGGLVQAGGRLRLSCAASGITFSGYVLGWDRPAPGKERELVAAISSSGGRTYYADSVKGRFTISRDNAKNTVYLQMNSLKPEDTAVYYCAARFLYANRYSVDYDYWGQGTQVTVSS”, for which the “polyreactivity (PSR sort gate)” value is on record as “high polyreactivity”.

On to “QVQLVESGGGLVQAGGSLRLSCAASGSIFSYNAMGWYRQAPGKERELVAAINNGGSTYYADSVKGRFTISRDNAKNTVYLQMNSLKPEDTAVYYCNTARRHCQTQGGDYWGQGTQVTVSS”, for which the “polyreactivity (PSR sort gate)” value is “high polyreactivity”.

As to “QVHLVESGRGLVQAGRSLRLSCAASGLTFDWYDMGCYRQAPGKERELVAAITSVGSTYYADSVKGRFTISRDNAKKTVYLQMNSLKPEDTAVYYCGVEGVIWSFWPYEYWGQGTQVTVSS”, the “polyreactivity (PSR sort gate)” value was “high polyreactivity”.

For “QVQLVESGGALVQAGGSLRLSCAASGSIFRWTAMGWYRQAPGKERVLVAAISKSGASTYYADSVKGRFTISRDNAKNTVYLQMNSLKPEDTAVYYCNRVYLGYFRYDYWGQGTQVTVSS”, the “polyreactivity (PSR sort gate)” value is recorded as “high polyreactivity”.

Turning to “QVQLVESGGGLVQAGGSLRLSCAASGRTFSYYAMGWYRQAPGKERELVAAITSSGGRTYYADSVKGRFTISRDTAKKSFYFQMYSLKPEDSAVYFFNTYTGQRDFSPFDSWGQGTQVTVTS”, the “polyreactivity (PSR sort gate)” value is listed as “high polyreactivity”.

“QVQLVESGGRLVQAGGSLRLTCDASGRTFDYNAMGWYRQAPWKERQLVAAITSRGGSTYYADSVKGRFTISRDNAKNTVYLQMNSLKPEDTAVYYCAAQHSVLAYFEYDYWGQGTQVTVSS”: the “polyreactivity (PSR sort gate)” value is reported as “low polyreactivity”.

Consider “QVQHVESGGGLVQAGGSLRLSCAPSGRIFRYNAMGWYRQAPGKERELVAVISTRGGSTFYADSVKGRFTISRDNAKNTVYFQMNSLKPEDTAVYSCAAYRRHPFGGGYWGQGTQVTVSS”, for which the “polyreactivity (PSR sort gate)” value is “high polyreactivity”.

With “QVQLVESGGGLVQAGGSLRLSCAASGSIFTYKAKVRYRQAPGKERELVAAISASGGSTYYADSVKGRFTISRDNAKHTVYVQMNSLKPEDTALYYCNAYQTSTPLFPGYGYWGQGTQVTVSS”, the “polyreactivity (PSR sort gate)” value is reported as “low polyreactivity”.

On to “QDQLVESGGGLVQAGGSLRLSCAASGFILNWYAMGVYRQAPGKERELVAAISWTTSDTYYADSVKGRFTISRDYAKNTVYLQMNSLKPEDTAVYYCNAKFYAYYVTFVLHYDYWGHGTQVTVSS”, for which the “polyreactivity (PSR sort gate)” value is reported as “low polyreactivity”.

“QVQLKESGVGLVQAGGSLRLSCAASGTIYWLWSMGWYCQAPGKERELVASISSGGTTYHADSVKGRFTISRDNAKNTVYLQMNSLNPEDTAVYYSAAFYVATAKLGYWGQGSQVTVSS”: the “polyreactivity (PSR sort gate)” value is on record as “low polyreactivity”.

Take “QVQLVESGGGLVQAGGSLRLSCAASGFTFVDNAMGWYRQPPRKERELVAAISWTGVGSTYYADSVKGRFTISRDNAKNTDYLQMNSLKPEDTAVYYCAADGLSRGVPDEFDYWGQGTQVTVSS”: the “polyreactivity (PSR sort gate)” value was “low polyreactivity”.

Consider “QVQLVESGGGLVQAGGSLRLSCAASGSIFSYYAMGWYRQAPGKERELVAAISRSGASTSYADSVKGRFTISRDNAKNTVYLQMNSLKPEDTAVYYCAKRIYWRGSWGRYYYWGQGTQVTVSS”, for which the “polyreactivity (PSR sort gate)” value is on record as “high polyreactivity”.

Regarding “QVQLVESGGGLVQAGGSLRLSCAASGITFGNYAMGWYSQAPGKERELVASFSWNVGSTYYADSVKGRFTISRDNAKNTVYLQMNSLKPEDTAVYYCARGYDRPRVATFHRFDYWGQGTQVTVSS”, the “polyreactivity (PSR sort gate)” value was “low polyreactivity”.

For “QVQLVESGGGLVQAGGSLRLSCAASGFTFAYNAMGWYRQAPGKERELVAAITVSGGRTYYADSVKGRFTISRDNAKNTVYLQMNSLKPEDTAVYYCAATVRVRTNSWMDYWGQGTQVTVSS”, the “polyreactivity (PSR sort gate)” value is “low polyreactivity”.

“QVQLEESGGGLVQAGGSLRFSFAASGSIFRYYAMGWYRQAPGKERELVANISRGCSTYYADSVKGRFTISRDNAKKTVYLQMNSLKPDDTAVYYCAADISERYDYWGQGTQVTVSS”: the “polyreactivity (PSR sort gate)” value is “high polyreactivity”.

Regarding “QVQLVESGGGLVQAGGSLRISCAASGFILYYYAMGWYRQAPGKERELVAAISRNGGRTYYAVSVKGRFTISRDNAKNTVYLQMNSLKPEDTAVYYCNKGVSRTLSSAYDYWGQVTQVTVSS”, the “polyreactivity (PSR sort gate)” value is on record as “high polyreactivity”.

Turning to “QVQLVESGGGLVQAGGSLRLSCAASGNTFWLNAMGWYRQAPGKERELVASISYSGASTYYADSVKGRFTISRDNAKNTVYFQMNSLKPEDTAVYYCNTDGDDFFHVIYDYWGQGTQVTVSS”, the “polyreactivity (PSR sort gate)” value was “low polyreactivity”.

As for “QVQLVESGGGLVQAGGSLRLSCAASGAIFVFYVMGWYRQAPGKERELVAAISNSGSSTYYADSVKGRFTISRDNAKNTVYLQMNSLKPEDTAVYYCAAEYKIPVGFDYWGQGTQVTVSS”, the “polyreactivity (PSR sort gate)” value is “low polyreactivity”.

For “QVQLVESGGGLVQAGGSLRLSCAASGSTFVDYDMGWYRQAPGKERELVAAITYSGARTYYADSVKGRFTISRDNAKNTVYLQMNSLKPEDTAVYYCNADQRTASDQLEFDYWGQGTQVTVSS”, the “polyreactivity (PSR sort gate)” value is reported as “low polyreactivity”.

As to “QVQLVESGGGLVQAGGSLRLSCGASGSIIGSYALGWYRQAPGPERELVAAISSSGGRTYYAVSVKGRFTISRDKAKNTVYLQMNRLKPAETAVYYCNTRPGTVFRAGGDDWGQGTQVTVSS”, the “polyreactivity (PSR sort gate)” value is reported as “high polyreactivity”.

“QVQLVESGGVLVQAGGSLRLSCAASGLIFSRYVMGWYRQAPGKERELVAAISRSGGSTYYADSVKGRFTISRDNAKNTVYLQMNSLKPEDTAVYYCNKLAPAPEADDYWGQGTQLTVSS”: the “polyreactivity (PSR sort gate)” value is “high polyreactivity”.

On to “QVQLVESGGGLVQAGGSLRLSCAASGITFTGYGMGWYRQAPGKERELVAAIRLRTGSTYYADSVKGRFTISRDNAKNTVYLQMYSLKPEDTAVYYCAAAFPRYRSRAIRVDYWGQGTQVTVSS”, for which the “polyreactivity (PSR sort gate)” value is listed as “high polyreactivity”.

“QVQLVESGGGLVKAGGSLRLSCAASGFTFTRYAMGWYRQAPGKDRELVAAISSGSRSYYADSVKGRFTISRDNANNTVYLQMNSLKPEDTAVYNCASPDYTYYGHYDSWGQGTQVTVSS”: the “polyreactivity (PSR sort gate)” value was “high polyreactivity”.

For “QVQLVESGGGLVQAGGSLRLSCAASGSTFYHYAMGWYRQAPGKERELVAAISTSGGRTYDADSVKGRFTISRDNAKNNVYLQMNSLKPEDTAVYYCAARPGSWYPSVPSYNYWGQGTQVTVSS”, the “polyreactivity (PSR sort gate)” value is “low polyreactivity”.

As to “QVQLVESGGGLVQAGGSLRLSCAASGLTFSHYAMGWYRQAPRKERELVAGISSRGGNTYYADSVKGRFTISRDNAKNTVYLQMNSLKPEDTAVYYCNAPKPKRAYDYWGQGTQVTVSS”, the “polyreactivity (PSR sort gate)” value is recorded as “high polyreactivity”.
